pKd: −log10 of the molar value.
Experiments:
[1] = target: SNAP-25 peptide comprising amino acids 134-197 of SEQ ID NO: 5 (human); test: SPR (BIAcore 3000), peptide on CM5 chip, antibody in flow
[2] = target: SNAP-25 peptide comprising amino acids 134-206 of SEQ ID NO: 5 (human); test: as above

| pKd [1] | koff [1] | kon [1] | pKd [2] | koff [2] | kon [2] | Substance |
| --- | --- | --- | --- | --- | --- | --- |
| 9.30 | 0.000882 s⁻¹ | 1.78e+06 M⁻¹ s⁻¹ | 4.70 | 0.00607 s⁻¹ | 306 M⁻¹ s⁻¹ | MC-6050 mouse α-SNAP-25 monoclonal antibody (Research & Diagnostic Antibodies) |
| 9.29 | 0.00118 s⁻¹ | 2.32e+06 M⁻¹ s⁻¹ | 6.62 | 2.56e-05 s⁻¹ | – | MC-6053 mouse α-SNAP-25 monoclonal antibody (Research & Diagnostic Antibodies) |

Source: US20120149104A1
